# In the domain aggregation screens of Martell et al. (2025):
# Test: soluble fraction after stress (log2 fold change); higher = more stays soluble; pooled small domains, quantitative proteomics
# Details: stress: 50 degC
# Procedure, shortened: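 After stress at 50°C, the amount of each protein still soluble was measured. This was done on pooled custom libraries of small protein domains, using high-throughput quantitative proteomics. The figure given is a base-two log fold change and stands for aggregation propensity, with higher values meaning more protein stays in solution.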
row,Sequence,soluble fraction (log2)
1,HMDDEELDALKGIPANEYTQEQIKQISEVFHTLQKNEVKDWLNSLQLRNIELPFELRNEVFSQ,0.159
2,HMTTRLLTPRQRQVFDIAIREGFYDSPRRISLTELADLLGVAKSTLSVQLQRVESTIVHTFSEEIRRRS,-2.57
3,HMITEDQVIARIGLLSPAEKSLLKDKLERFRRLTLSEQQHLREFHSALDNHDKRTDLLNVLRKYNDWVNQL,-1.67
4,HMSEYILATNDGEFLRITSYSKEEGGMLVWEKTSSIVSAEHKVIPYSQIINIKDRNGDVVWDKD,-0.346
5,HMYAVDTIHKGTITEMTDKGAVVSLGDNIDGFAPARQLVKEDGTTLKLGDTADFKVIEFSKATKRITLSH,0.286
6,HMNKEIEDYVATYSSMKAKEAAAIFDTMTSDLDLVAKILEAMSADDRAKILEQMNEENAARLTKMMD,0.21
7,HMEDLMEERKEHLLSVMKDPAYVPMKQKELAMLLNVPKGLREELNQVLDALVAEGSVVMSKRGKYTIPQ,-0.0312
8,HMEFQISLAAARVNANMTQEDTARAMKVSKTTIVNWEKGKVIPGIPEVEMMSRLYGIPQDYIFLP,-3.2
9,HMDYDDLVPLDARGRLRLDGQDIILAFGRHRGRSIEEVHNHDKSYFDWLVSPAGGLEDEVIATLRERF,-0.607
10,HMGIPVSIGQLDFNQARGNLALQVRASDFAALEQLRQRLGQTGESVQLGSASRDGDAVSARVVIGGQ,-0.015
11,HMDDATDLPYQEFRTQVSDGQVKIAQFNNNTGKITFESISGDKFKTSGPLELSSDDERLFLENIEDFKFFT,0.104
12,HMAFEITSAERTRLEDIARKGLTAYTAEWKQLPASEKKALNKTGLQDFLKSMAADADSAREEEA,0.0772
13,HMPREVKLPPDLLDALEASPEAKAFFLQLSYTHQKEYAQWIEEAKQEATRQRRLEKTVQMLLEGRRT,-0.0798
14,HMVLRPDDVEDSLWREWVSHRKAKRAAVTEGVLKTFRQEATKASFTLADAMRKSIDRGWTGFEAEWVARET,-0.074
15,HMLQNLGFKPDLEIRHFPGIVLPDIHRSKKTISLLYTLLAGDIKKLPENEINYKDSKIISSYLWTLLRYH,0.0237
16,HMEEDDGVDFHERLTELNDEQVYYLINTEPAKVIALALDQLGQKRKINIMNRFNPDMKHSIIMELGKL,-0.516
17,HMVSPLEKSQSFGSFEISREFARTLGLTSARNWENWAASDSRPINIPYSPNVFYKNKGWIDWSDWLGTE,-0.286
18,HMLDIVVGSTGYALGEITDHSGTVRVNGDTWTARLVDAAGPVEDGDRVEVYAVEGTTLLVYPS,-0.396
19,HMSPLTPEEAEVLRILGDHGDMTVDNIATEGKMSAAAVLRVLGVLSAYGLAVPSGPGRWGSRAA,-0.24

row,Sequence,soluble fraction (log2)
1,HMLSGNLTADAHVHRGLQALSDGRNEDALVDFTKATEVQADFAEAWNKRATVNYLLGRYDAAVLDIQKTLE,0.19
2,HMSQEILSNQSIKDMIELGFEEQTIIDKIQTSTSDFDTTIEELKALKQLGASPTILSAMIKSIKK,0.285
3,HMLRTEYLTVNYAKASEVAELVTASGFLSSRGSITVDERTNTLLLQDTATNIDEVRFMLEQLD,-0.443
4,HMVFTEEERAEYREKMLDAGFDLLKQYGMTHMSVAKITEAAGIGVSTFYNFFSSKEEYVYEVLQYRRRK,-1.25
5,HMESKITTAEAAAILNASPQFVRVAMQRGILNIGIAMQMPNSNKWTYNISPKLLGEYSGKNIEYELERLR,-1.54
6,HMEAPPHEALSNREFQVLQLLSQGRSVTQIAHQLTLSANTISTYRARIFDKLGLHNPADLYAYAARHGLM,-0.676
7,HMKEKIIKEPYDLFTTDKIGQALEVQALLARQGIKVQRRVDGTKSTLFLENYTQSEKDQALLAVVRSGIV,0.161
8,HMTPEGAYTVSEIVKVINSFADEYKVPFTMHVSGYKYEEIAQQLGLPIGTVKSRIFFARKRLQELLN,-0.952
9,HMFEQFEVENLQELQQEWGDKFNHNLEMARRAFMNFATPEAVKVLEETGMGNHPELLKVFARIGEVLAED,-0.536
10,HMDGDFGMNLDWQPSEHFPTLARQAGIPADHITAEAIAEFRSYWIGQGKAMTQYQWDHKLLTNLKATKTR,-1.14
11,HMEVDWLEVEKVIVSSSYSWMENSPKVKLLQEYIGVTADGIYGLGTWGAHRTHAVDLGFINLSYPIP,-0.127
12,HMAPNDELTRQVISVLSGTPQQAFNYKQISKKLNINDSSERRMVSNILRELAGKGEIVEVYQGKYRSKAPA,0.0588
13,HMLNEIMDTINKYISDKRNNKVAQNILSAALDELNSQIRVGLKDLNPHSIEEFKENVINSPYIEFEQG,0.046
14,HMGFAANLSRLMEYHNISMYRLAKEVGVHQTTVKNWLEEESEPKIAALEKIVGLLGVSYDELLG,-4.56
15,HMVKTIINGEEKDFDAQDFQTFGDFLKKVIPEGQILKSLKINSKDVPIAFIDELKSATVDENITIEMELA,0.429
16,HMEELVGFEEKVRSILTSPLSAKEIKEKTHIEIDTRKLSKMLSELSFIKTEKKNGKKIFRLVS,-0.284
17,HMIQTKNVTFTINEKTKIANIPLKSLKILSQEDNRITLSYEKNSLKIDEIISYFSDKNINILDITTD,-0.451
18,HMSRLLERARDLMAKPGAWLSAEGGAYALRLSPDRRSRISLTLTETEFRALIDQPGLRVRPGGGWSGRA,-3
19,HMATEVEVPDVVGRQMALATQLLEARKLRVNVAEIYDEKTPPGQVVSQSPEAGSSVKEERVVTIYVSR,-0.0321
